From patent US20250177453A1 (Harvard, published 2025)

Biological target: T1, human PD-L1 expressed on the surface of SC-islet cells (human, UniProt Q9NZQ7 19-290)
T1 construct: whole, on cells; also called PD-L1 on B2P SC-islet cells
Experiment: flow cytometry, labelled PD-1-Fc on dissociated SC-islet cells

T1 sequence (Q9NZQ7 19-290): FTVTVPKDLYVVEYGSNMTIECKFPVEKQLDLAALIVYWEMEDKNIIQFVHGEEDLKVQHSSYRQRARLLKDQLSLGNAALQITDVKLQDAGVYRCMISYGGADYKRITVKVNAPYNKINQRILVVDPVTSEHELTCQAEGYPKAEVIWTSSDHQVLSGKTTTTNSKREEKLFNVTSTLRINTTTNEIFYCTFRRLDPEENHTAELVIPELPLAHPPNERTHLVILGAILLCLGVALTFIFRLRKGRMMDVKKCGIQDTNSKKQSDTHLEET

binding result: binds
B1: PE-conjugated mouse PD1-Fc (Fc fusion, UniProt Q02242 25-167, looked up)
chain: LEVPNGPWRSLTFYPAWLTVSEGANATFTCSLSNWSEDLMLNWNRLSPSNQTEKQAAFCNGLSQPVQDARFQIIQLPNRHDFHMNILDTRRNDSGIYLCGAISLHPKAKIEESPGAELVVTERILETSTRYPSPSPKPEGRFQ
modifications: PE-conjugated (fluorescently labelled)
notes: It says only 'fluorescently labelled, soluble' PD-1-Fc; also called soluble mouse PD-1-Fc; soluble mouse PD-1; not shown: Fc part
